Measured values reported in patent publication US20190276499A1, “Protein VII Fragments and Methods of Use Thereof for the Treatment of Inflammatory Disorders” (priority 2016, published 2019).
Residue numbers refer to the chain shown, from its start.

Legend:
cellular chromatin = test: Chromatin appearance in inducible cell lines (immunofluorescence, DAPI); assay type: cell-based; details: inducible expression
Description: Primary small airway epithelial cells (SAECs), U2OS, HeLa, 293, THP-1 and A549 cells were obtained from the American Tissue Culture Collection (ATCC) and grown according to the provider's instructions. Acceptor cells for generation of inducible cell lines were used as reported (Khandelia et al. (2011) Proc. Natl. Acad. Sci., 108:12799-12804). Protein VII, preVII and V were cloned from genomic DNA isolated from HeLa cells infected with adenovirus type 5 and inserted into the inducible plasmid cassette with a C-terminal HA tag using restriction enzymes BsrGI and AgeI. Positive clones were selected in DH5a cells, sequenced, and transfected into A549, U2OS or HeLa acceptor cells along with plasmid expressing the Cre recombinase. Recombined clones were selected by puromycin resistance (1 μg/mL) and induced with doxycycline (0.2 μg/mL) to express the desired protein. Protein expression was verified by immunofluorescence and western blot. All figures shown are after 4 days of induction unless otherwise stated. Protein VII and preVII were also verified by HPLC purification and mass spectrometry analysis. Point mutations were generated by gene synthesis from Genewiz.
Cells were grown on glass coverslips in 24-well plates and either infected or induced with doxycycline (0.2 μg/mL). […]

HMGB1 [1] = target: T1, HMGB1 (Homo sapiens, UniProt P09429); test: In vitro binding assay: recombinant protein VII-His with HMGB1-GST, cobalt resin pull-down; details: equimolar HMGB1-GST and protein VII-His
T1 sequence (P09429 1-215): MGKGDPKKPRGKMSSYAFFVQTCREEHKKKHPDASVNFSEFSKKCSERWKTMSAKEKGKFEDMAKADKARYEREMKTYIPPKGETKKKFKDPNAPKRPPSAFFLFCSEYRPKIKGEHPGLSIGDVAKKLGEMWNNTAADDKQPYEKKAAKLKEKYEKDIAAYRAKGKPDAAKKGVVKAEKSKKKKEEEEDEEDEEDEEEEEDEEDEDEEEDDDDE
Protocol: HMGB1-GST (Abnova) or GST (Sigma) were combined with recombinant protein VII-His at equimolar ratios and incubated at 4° C. for 1 hour. Complexes were then mixed with a cobalt resin (ThermoScientific 89964) to bind protein VII-His and any associated protein and washed three times in the binding buffer (50 mM Tris pH 8, 300 mM NaCl, 0.1% IGEPAL). The beads were then boiled in sample buffer, separated on a 4-12% NuPage gel and visualized by coomassie staining.

DNA = test: Gel shift of recombinant protein VII-His with 195 bp DNA; assay type: binding; details: purified recombinant protein
Protocol: Gel shift and MNase digestion assays were carried out as described (Falk et al. (2015) Science 348:699-703; Hasson et al. (2013) Nat. Struct. Mol. Biol., 20:687-695; Sekulic et al. (2010) Nature 467:347-351). Briefly, nucleosomes were reconstituted by incubating purified recombinant histones with ‘601’ DNA of either 195 or 147 bp over a series of dialysis. Recombinant protein VII-His was then combined with nucleosomes at various molar ratios, incubated at room temperature for 15 minutes, and analyzed by native gel electrophoresis. Complexes were also digested with MNase (Affymetrix) by addition of 1 unit per μg of DNA for 147 bp nucleosome experiments and 0.1 unit per μg of DNA for 195 bp nucleosome experiments, incubated at 22° C. for varying amounts of time followed by the addition of EGTA and guanidine thiocyanate to stop the reaction. The DNA fragments were then purified using a MinElute PCR purification kit (Qiagen) and analyzed on an Agilent 2100 Bioanalyzer as described (Falk et al. (2015) Science 348:699-703).

LPS induced lung injury = test: Murine model of LPS induced lung injury, BAL fluid analysis; assay type: in vivo, mouse; details: 24 hours after LPS exposure, versus mice expressing GFP
Protocol: All mice were housed in SPF conditions. All studies in mice were carried out in accordance with the recommendations in the Guide for the Care and Use of Laboratory Animals of the National Institutes of Health. C57BL/6J male mice aged 8-10 weeks were used for experiments. Mice were sedated with ketamine and xylazine. Once sedated, mice underwent orotrachial intubation, as described (Das et al. (2013) J. Vis. Exp., (73):e50318), with a 20G angiocatheter from BD (Franklin Lakes, N.J.). Mice subsequently received 5e10 GC of recombinant adenovirus expressing VII-GFP or GFP purified as described above. Four days after infection, mice were exposed to aerosolized LPS, 3 mg/mL for 30 minutes as described (Jeyaseelan et al. (2004) Infect. Immun., 72:7247-7256). One day after LPS exposure, BAL, and lung tissue were harvested as detailed (Nick et al. (2000) J. Immunol., 164:2151-2159) and examined for HMGB1 content (ELISA, Chondrex 6010) and neutrophil count (hematoxylin and eosin stain kit EMD 65044/93). Immunostaining was carried out using standard methods. A minimum of four biological replicates were used for each condition studied. Mice were assigned a random number and color at the start of the experiment and were randomized. Technicians carrying out the experiments were blinded to the identity of the samples. Tissue samples were assigned a random study number such that the technician performing the analysis was blinded. Unblinding for the purpose of data analysis occurred only after all data had been collected.

HMGB1 [2] = target: T1, HMGB1; test: Release assay of HMGB1 in THP-1 cells; assay type: cell-based; set-up: endogenous in cells; details: PMA-treated THP-1 cells, LPS plus nigericin
Protocol: (§1) THP-1 cells were seeded at a density of 2×10^5 cells per well in a 24-well plate, and stimulated into macrophage-like cells by addition of 10 ng/mL PMA for 48 hours. Cells were washed in PBS and transduced with recombinant adenovirus vectors expressing only GFP or protein VII-GFP such that >90% of cells were GFP positive. At 48 hours post transduction, cells were washed and 200 μL of serum free RPMI was added. To stimulate the inflammasome, LPS (Sigma-Aldrich L2880) with a final concentration of 0.5 μg/mL was added to wells and incubated for 2 hours, then nigericin (Sigma-Aldrich N7143) was added with a final concentration of 10 μM for 1 hour. Supernatants were collected and proteins precipitated overnight at 4° C. with a final concentration of 20% trichloroacetic acid (Sigma), washed with acetone, dried, and resuspended in 1×sample buffer with reducing agent (Invitrogen). For ELISA analysis, supernatants were harvested directly and HMGB1 content was detected by the manufacturer's instructions (Chondrex 6010). Cells were also harvested by the addition of 1×sample buffer with reducing agent (Invitrogen) and boiled. Supernatants and lysates were analyzed together by western blot.

mouse HMGB1 = target: T2, mouse HMGB1 (Mus musculus, UniProt P63158); test: Mouse embryonic fibroblast (MEF) cells transduced to express protein VII-GFP: immunofluorescence and salt fractionation; assay type: cell-based
T2 construct: endogenous in cells; host or cells: mouse embryonic fibroblasts (MEF)
T2 sequence (P63158 1-215): T1 sequence (P09429 1-215) with E189D, D202E
Protocol: Cells were grown on glass coverslips in 24-well plates and either infected or induced with doxycycline (0.2 μg/mL). Cells were harvested for immunofluorescence at the indicated time points, washed in phosphate-buffered saline (PBS), fixed in 4% paraformaldehyde for 15 minutes and post-fixed with 100% ice-cold methanol for 5 minutes. Coverslips were then blocked and stained as described (Lilley et al. (2011) PLoS Pathog., 7:e1002084) and mounted using ProLong Gold Antifade Reagent (Life Technologies). Immunofluorescence was visualized using a Zeiss LSM Confocal microscope and ZEN 2011 software. Images were processed using ImageJ and assembled with Adobe CS6. All scale bars show in the Figures are 10 μm unless otherwise stated.
Salt fractionation of nuclei was adapted from established protocols (Zaret, K. (2005) Micrococcal nuclease analysis of chromatin structure. Curr. Protoc. Mol., Biol. Chapter 21, Unit 21.1; Teves et al. (2012) Methods Mol. Biol., 833:421-432). […] The final pellet was resuspended in 400 μL ddH2O and all samples were analyzed together by western blot. An aliquot of each supernatant was set aside for DNA purification using a PCR purification kit (Qiagen) and analyzed by agarose gel electrophoresis. […]

HMGB2 = target: T3, HMGB2 (Homo sapiens, UniProt P26583); test: Release assay of HMGB2 in THP-1 cells; assay type: cell-based; details: PMA-treated THP-1 cells, LPS plus nigericin
T3 construct: endogenous in cells; host or cells: THP-1 (PMA-differentiated)
T3 sequence (P26583 1-209): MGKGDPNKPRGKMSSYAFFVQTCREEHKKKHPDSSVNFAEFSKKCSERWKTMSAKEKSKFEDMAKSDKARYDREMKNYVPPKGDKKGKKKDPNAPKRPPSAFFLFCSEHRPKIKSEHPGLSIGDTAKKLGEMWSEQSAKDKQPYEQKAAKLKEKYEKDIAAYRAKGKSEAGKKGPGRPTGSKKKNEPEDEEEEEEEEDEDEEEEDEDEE
Protocol: as §1

PRM1: human protamine PRM1, a basic protein involved in sperm DNA compaction (ARYRCCRSQSRSRYYRQRQRSRRRRRRSCQTRRRAMRCCRPRYRPRCRRH; UniProt P04553 2-51, looked up) [reference compound]
Effect on chromatin appearance (cellular chromatin): did not affect chromatin appearance

B1: recombinant protein VII: Ad5 protein VII with C-terminal hexahistidine tag, purified from E. coli (protein)
chain: AKKRSDQHPVRVRGHYRAPWGAHKRGRTGRTTVDDAIDAVVEEARNYTPTPPPVSTVDAAIQTVVRGARRYAKMKRRRRRVARRHRRRPGTAAQRAAAALLNRARRTGRRAAMRAARRLAAGIVTVPPRSRRRAAAAAAAAISAMTQGRRGNVYWVRDSVSGLRVPVRTRPPRN
modifications: left off: small tags and cut ends
notes: Ad5 protein VII with C-terminal hexahistidine tag, purified from E. coli
Direct binding of recombinant protein VII to HMGB1 in vitro (HMGB1 [1]): Direct binding
DNA binding (DNA): binds to DNA

B2: protein VII-GFP (protein)
chain: B1 chain
modifications: left off: large carriers
HMGB1 in BAL fluid (LPS induced lung injury): decreases HMGB1
Neutrophils in BAL fluid (LPS induced lung injury): significantly fewer
HMGB1 in supernatants (HMGB1 [2]): sufficient to inhibit HMGB1 and HMGB2 release
Relocalization of mouse HMGB1 (mouse HMGB1): sufficient to relocalize mouse HMGB1
Retention of mouse HMGB1 in the high salt fraction (mouse HMGB1): sufficient to retain mouse HMGB1 in the high salt fraction
HMGB2 in supernatants (HMGB2): sufficient to inhibit HMGB1 and HMGB2 release
